The text below walks through data of paper PMC10786891, “Massively parallel profiling of RNA-targeting CRISPR-Cas13d”.

T1: EsCas13d, nuclease-dead (Eubacterium siraeum, UniProt B0MS50, R295A;H300A;R849A;H854A)
T1 sequence: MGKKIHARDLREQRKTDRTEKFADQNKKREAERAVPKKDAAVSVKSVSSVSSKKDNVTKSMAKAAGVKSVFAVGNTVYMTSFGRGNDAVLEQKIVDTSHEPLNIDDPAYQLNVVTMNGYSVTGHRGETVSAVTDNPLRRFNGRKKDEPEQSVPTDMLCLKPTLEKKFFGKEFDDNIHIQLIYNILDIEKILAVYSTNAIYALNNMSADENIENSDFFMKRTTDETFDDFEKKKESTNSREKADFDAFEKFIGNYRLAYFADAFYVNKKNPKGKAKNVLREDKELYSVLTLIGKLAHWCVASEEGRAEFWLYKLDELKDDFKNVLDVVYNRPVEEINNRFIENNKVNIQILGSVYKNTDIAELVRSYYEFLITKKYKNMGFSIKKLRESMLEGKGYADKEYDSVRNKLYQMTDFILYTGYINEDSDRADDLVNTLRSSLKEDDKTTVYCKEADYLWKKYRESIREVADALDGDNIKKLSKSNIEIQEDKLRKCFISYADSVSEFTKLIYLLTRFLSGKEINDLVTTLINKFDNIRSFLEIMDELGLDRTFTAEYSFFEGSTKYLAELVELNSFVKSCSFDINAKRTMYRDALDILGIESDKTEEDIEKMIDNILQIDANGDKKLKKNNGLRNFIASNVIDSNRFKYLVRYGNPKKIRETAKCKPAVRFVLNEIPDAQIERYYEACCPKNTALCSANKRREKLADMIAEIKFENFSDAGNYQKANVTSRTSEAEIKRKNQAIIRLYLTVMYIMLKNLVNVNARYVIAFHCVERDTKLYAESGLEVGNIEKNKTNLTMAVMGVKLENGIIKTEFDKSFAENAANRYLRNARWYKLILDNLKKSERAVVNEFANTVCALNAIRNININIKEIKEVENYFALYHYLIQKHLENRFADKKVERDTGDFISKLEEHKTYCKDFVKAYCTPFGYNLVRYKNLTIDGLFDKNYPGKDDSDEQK

B1: target 2 MT 5'PFS CAU 3'PFS UGA (mixed)
RNA 1: CACCCGUGCAAAAUUGCAGGGGUCUAAAACCUUCUCCAAAUUGUUUCAUCCU
RNA 2: GGGAAUGGAUCCACAUCUACGAAUUCCAUAGGAUGAAACAAUUUGGAGAAGUGAAGAUCGGAAGAGCACACGU
B2: target 2 MT 5'PFS ACC 3'PFS UUG (mixed)
RNA 1: CACCCGUGCAAAAUUGCAGGGGUCUAAAACCUUCUCCAAAUUGUUUCAUCCU
RNA 2: GGGAAUGGAUCCACAUCUACGAAUUCACCAGGAUGAAACAAUUUGGAGAAGUUGAGAUCGGAAGAGCACACGU
B3: target 2 MT 5'PFS CAU 3'PFS UGC (mixed)
RNA 1: CACCCGUGCAAAAUUGCAGGGGUCUAAAACCUUCUCCAAAUUGUUUCAUCCU
RNA 2: GGGAAUGGAUCCACAUCUACGAAUUCCAUAGGAUGAAACAAUUUGGAGAAGUGCAGAUCGGAAGAGCACACGU
B4: target 2 MT 5'PFS CGA 3'PFS AGA (mixed)
RNA 1: CACCCGUGCAAAAUUGCAGGGGUCUAAAACCUUCUCCAAAUUGUUUCAUCCU
RNA 2: GGGAAUGGAUCCACAUCUACGAAUUCCGAAGGAUGAAACAAUUUGGAGAAGAGAAGAUCGGAAGAGCACACGU
B5: target 2 MT 5'PFS CGA 3'PFS CGA (mixed)
RNA 1: CACCCGUGCAAAAUUGCAGGGGUCUAAAACCUUCUCCAAAUUGUUUCAUCCU
RNA 2: GGGAAUGGAUCCACAUCUACGAAUUCCGAAGGAUGAAACAAUUUGGAGAAGCGAAGAUCGGAAGAGCACACGU
B6: target 2 MT 5'PFS ACC 3'PFS UUU (mixed)
RNA 1: CACCCGUGCAAAAUUGCAGGGGUCUAAAACCUUCUCCAAAUUGUUUCAUCCU
RNA 2: GGGAAUGGAUCCACAUCUACGAAUUCACCAGGAUGAAACAAUUUGGAGAAGUUUAGAUCGGAAGAGCACACGU
B7: target 2 MT 5'PFS ACU 3'PFS CCG (mixed)
RNA 1: CACCCGUGCAAAAUUGCAGGGGUCUAAAACCUUCUCCAAAUUGUUUCAUCCU
RNA 2: GGGAAUGGAUCCACAUCUACGAAUUCACUAGGAUGAAACAAUUUGGAGAAGCCGAGAUCGGAAGAGCACACGU
B8: target 2 MT 5'PFS GCC 3'PFS CCA (mixed)
RNA 1: CACCCGUGCAAAAUUGCAGGGGUCUAAAACCUUCUCCAAAUUGUUUCAUCCU
RNA 2: GGGAAUGGAUCCACAUCUACGAAUUCGCCAGGAUGAAACAAUUUGGAGAAGCCAAGAUCGGAAGAGCACACGU
B9: target 2 MT 5'PFS CAU 3'PFS UGU (mixed)
RNA 1: CACCCGUGCAAAAUUGCAGGGGUCUAAAACCUUCUCCAAAUUGUUUCAUCCU
RNA 2: GGGAAUGGAUCCACAUCUACGAAUUCCAUAGGAUGAAACAAUUUGGAGAAGUGUAGAUCGGAAGAGCACACGU
B10: target 2 MT 5'PFS ACU 3'PFS CCA (mixed)
RNA 1: CACCCGUGCAAAAUUGCAGGGGUCUAAAACCUUCUCCAAAUUGUUUCAUCCU
RNA 2: GGGAAUGGAUCCACAUCUACGAAUUCACUAGGAUGAAACAAUUUGGAGAAGCCAAGAUCGGAAGAGCACACGU
B11: target 2 MT 5'PFS GCC 3'PFS CCG (mixed)
RNA 1: CACCCGUGCAAAAUUGCAGGGGUCUAAAACCUUCUCCAAAUUGUUUCAUCCU
RNA 2: GGGAAUGGAUCCACAUCUACGAAUUCGCCAGGAUGAAACAAUUUGGAGAAGCCGAGAUCGGAAGAGCACACGU
B12: target 2 MT 5'PFS CUG 3'PFS CAG (mixed)
RNA 1: CACCCGUGCAAAAUUGCAGGGGUCUAAAACCUUCUCCAAAUUGUUUCAUCCU
RNA 2: GGGAAUGGAUCCACAUCUACGAAUUCCUGAGGAUGAAACAAUUUGGAGAAGCAGAGAUCGGAAGAGCACACGU
B13: target 2 MT 5'PFS ACC 3'PFS UUA (mixed)
RNA 1: CACCCGUGCAAAAUUGCAGGGGUCUAAAACCUUCUCCAAAUUGUUUCAUCCU
RNA 2: GGGAAUGGAUCCACAUCUACGAAUUCACCAGGAUGAAACAAUUUGGAGAAGUUAAGAUCGGAAGAGCACACGU
B14: target 2 MT 5'PFS AUA 3'PFS CGC (mixed)
RNA 1: CACCCGUGCAAAAUUGCAGGGGUCUAAAACCUUCUCCAAAUUGUUUCAUCCU
RNA 2: GGGAAUGGAUCCACAUCUACGAAUUCAUAAGGAUGAAACAAUUUGGAGAAGCGCAGAUCGGAAGAGCACACGU
B15: target 2 MT 5'PFS ACC 3'PFS UUC (mixed)
RNA 1: CACCCGUGCAAAAUUGCAGGGGUCUAAAACCUUCUCCAAAUUGUUUCAUCCU
RNA 2: GGGAAUGGAUCCACAUCUACGAAUUCACCAGGAUGAAACAAUUUGGAGAAGUUCAGAUCGGAAGAGCACACGU
B16: target 2 MT 5'PFS AGA 3'PFS CGC (mixed)
RNA 1: CACCCGUGCAAAAUUGCAGGGGUCUAAAACCUUCUCCAAAUUGUUUCAUCCU
RNA 2: GGGAAUGGAUCCACAUCUACGAAUUCAGAAGGAUGAAACAAUUUGGAGAAGCGCAGAUCGGAAGAGCACACGU
B17: target 2 MT 5'PFS UAA 3'PFS UUC (mixed)
RNA 1: CACCCGUGCAAAAUUGCAGGGGUCUAAAACCUUCUCCAAAUUGUUUCAUCCU
RNA 2: GGGAAUGGAUCCACAUCUACGAAUUCUAAAGGAUGAAACAAUUUGGAGAAGUUCAGAUCGGAAGAGCACACGU
B18: target 2 MT 5'PFS UAA 3'PFS UUU (mixed)
RNA 1: CACCCGUGCAAAAUUGCAGGGGUCUAAAACCUUCUCCAAAUUGUUUCAUCCU
RNA 2: GGGAAUGGAUCCACAUCUACGAAUUCUAAAGGAUGAAACAAUUUGGAGAAGUUUAGAUCGGAAGAGCACACGU
B19: target 2 MT 5'PFS AUA 3'PFS CGA (mixed)
RNA 1: CACCCGUGCAAAAUUGCAGGGGUCUAAAACCUUCUCCAAAUUGUUUCAUCCU
RNA 2: GGGAAUGGAUCCACAUCUACGAAUUCAUAAGGAUGAAACAAUUUGGAGAAGCGAAGAUCGGAAGAGCACACGU
B20: target 2 MT 5'PFS CGG 3'PFS UCG (mixed)
RNA 1: CACCCGUGCAAAAUUGCAGGGGUCUAAAACCUUCUCCAAAUUGUUUCAUCCU
RNA 2: GGGAAUGGAUCCACAUCUACGAAUUCCGGAGGAUGAAACAAUUUGGAGAAGUCGAGAUCGGAAGAGCACACGU
B21: target 2 MT 5'PFS CGA 3'PFS CGC (mixed)
RNA 1: CACCCGUGCAAAAUUGCAGGGGUCUAAAACCUUCUCCAAAUUGUUUCAUCCU
RNA 2: GGGAAUGGAUCCACAUCUACGAAUUCCGAAGGAUGAAACAAUUUGGAGAAGCGCAGAUCGGAAGAGCACACGU
B22: target 2 MT 5'PFS CAG 3'PFS AAC (mixed)
RNA 1: CACCCGUGCAAAAUUGCAGGGGUCUAAAACCUUCUCCAAAUUGUUUCAUCCU
RNA 2: GGGAAUGGAUCCACAUCUACGAAUUCCAGAGGAUGAAACAAUUUGGAGAAGAACAGAUCGGAAGAGCACACGU
B23: target 2 MT 5'PFS CUG 3'PFS CAC (mixed)
RNA 1: CACCCGUGCAAAAUUGCAGGGGUCUAAAACCUUCUCCAAAUUGUUUCAUCCU
RNA 2: GGGAAUGGAUCCACAUCUACGAAUUCCUGAGGAUGAAACAAUUUGGAGAAGCACAGAUCGGAAGAGCACACGU
B24: target 2 MT 5'PFS CUG 3'PFS CAU (mixed)
RNA 1: CACCCGUGCAAAAUUGCAGGGGUCUAAAACCUUCUCCAAAUUGUUUCAUCCU
RNA 2: GGGAAUGGAUCCACAUCUACGAAUUCCUGAGGAUGAAACAAUUUGGAGAAGCAUAGAUCGGAAGAGCACACGU
B25: target 2 MT 5'PFS CGA 3'PFS AGC (mixed)
RNA 1: CACCCGUGCAAAAUUGCAGGGGUCUAAAACCUUCUCCAAAUUGUUUCAUCCU
RNA 2: GGGAAUGGAUCCACAUCUACGAAUUCCGAAGGAUGAAACAAUUUGGAGAAGAGCAGAUCGGAAGAGCACACGU
B26: target 1 insC 3' of 16,insU 3' of 7 (mixed)
RNA 1: CACCCGUGCAAAAAUGCAGGGGUCUAAAACUGAGCGGAUAACCUCUCUAUGG
RNA 2: GGGAAUGGAUCCACAUCUACGAAUUCGUACCAUAGACGAGGUUAUCUCGCUCACCGAGAUCGGAAGAGCACACGU
B27: target 1 insC 3' of 11,insU 3' of 7 (mixed)
RNA 1: CACCCGUGCAAAAAUGCAGGGGUCUAAAACUGAGCGGAUAACCUCUCUAUGG
RNA 2: GGGAAUGGAUCCACAUCUACGAAUUCGUACCAUAGAGAGGUCUAUCUCGCUCACCGAGAUCGGAAGAGCACACGU

In this series the target is T1, EsCas13d, nuclease-dead. In words: crRNA (strand 1, pre-loaded); Mg2+; 40 mM Tris-HCl pH 7.5, 150 mM NaCl, 6 mM MgCl2, 1 mM DTT, 0.1% Tween-20, 0.2 mg/ml BSA; 25 C; 10 min per concentration, then washed. Conditions: tags: His6-TwinStrep-SUMO cleaved; N-terminal SNAP kept (SNAP-Surface 488); label: 3' end held by stalled T7 RNA polymerase.
Consider B1, for which the affinity, expressed as Kd, was 4.5 ± 1.4 nM.

Regarding B2, the equilibrium dissociation constant (Kd) came to 11.2 ± 2.2 nM.

Molecule B3 came in with a Kd of 3.1 ± 0.5 nM.

For B4, the dissociation constant Kd was 4.6 ± 0.9 nM.

Take B5: the equilibrium dissociation constant (Kd) is 5.3 ± 1 nM.

B6: the affinity, expressed as Kd, was 7.8 ± 0.9 nM.

B7: the Kd was found to be 6.2 ± 0.6 nM.

Molecule B8 registered a Kd of 20 ± 4 nM.

Regarding B9, the affinity, expressed as Kd, was 4.4 ± 0.5 nM.

B10: binding was put at a Kd of 7.3 ± 1.8 nM.

The molecule B11 showed a Kd of 18 ± 2 nM.

In the case of B12, the equilibrium dissociation constant (Kd) was found to be 2.33 ± 0.21 nM.

As for B13, binding was characterised by a dissociation constant (Kd) of 9.6 ± 2.8 nM.

Regarding B14, binding was characterised by a dissociation constant (Kd) of 7.8 ± 0.8 nM.

Take B15: the dissociation constant Kd was 8.2 ± 1.4 nM.

For the molecule B16, the affinity, expressed as Kd, was 6.5 ± 1.2 nM.

Molecule B17 displayed a Kd of 14 ± 2.1 nM.

The molecule B18 displayed a Kd of 13.4 ± 1.9 nM.

Regarding B19, the Kd was found to be 9.5 ± 2.1 nM.

As to B20, binding was put at a Kd of 7 ± 0.6 nM.

Take B21: the Kd was 5.6 ± 1.5 nM.

As for B22, binding was put at a Kd of 6.1 ± 1.4 nM.

As to B23, the dissociation constant (Kd) is 3.7 ± 0.4 nM.

In the case of B24, the Kd was found to be 2.29 ± 0.24 nM.

With B25, binding was put at a Kd of 7.8 ± 1.1 nM.

In turn, B26 returned an equilibrium dissociation constant (Kd) of 75 ± 8 nM.

B27 returned a Kd of 39 ± 5 nM.
